According to publication PMC5814282, “Biophysical studies and NMR structure of YAP2 WW domain - LATS1 PPxY motif complexes reveal the basis of their interaction” (Oncotarget, 2018):

B1: LATS1 PPxY2 peptide mutant Q to A (peptide)
peptide: NYAGPPPPYPKH
notes: LATS1 PPxY2 peptide aa 551-562 with the Q at P1-3 changed to A; also called PPxY2m; PPxY2 Q→A; source: synthetic peptide, bought: GL BioChem
B2: LATS1 PPxY1 peptide mutant R to A (peptide)
peptide: NAQPPPPYPLTA
notes: also called PPxY1m; PPxY1R→A; source: synthetic peptide, bought: GL BioChem
B3: YAP2 WW12 (both WW domains; aa 163-266) (domain or fragment, human, UniProt P46937-2 163-266, looked up)
chain: SSFEIPDDVPLPAGWEMAKTSSGQRYFLNHIDQTTTWQDPRKAMLSQMNVTAPTSPPVQQNMMNSASGPLPDGWEQAMTQDGEIYYINHKNKTTSWLDPRLDPR
notes: YES-associated protein, isoform YAP2 (YAP1-2), human, both WW domains, aa 163-266; cloned into pGEX-6P-1; 15N-labelled in one of the NMR titrations; source: also co-expressed with PY12 and co-purified

Columns and labels:
[1] = molecular target: T1, YAP2 WW1 domain (aa 163-206) (human, UniProt P46937-2 163-206); test: ITC; protein 20 to 70 uM titrated against peptide 0.5 to 1.8 mM, 25°C, 20 mM Tris-HCl pH 7.0, 100 mM NaCl; single ligand binding site model; conditions: both partners purified
T1 construct: YES-associated protein, isoform YAP2 (YAP1-2, two WW domains), human, first WW domain, aa 163-206; cloned into pGEX-6P-1

[2] = molecular target: T2, LATS1 PY12 (both PPxY motifs; aa 361-567) (UniProt O95835 361-567); test: ITC; WW12 vs PY12; 20 mM Tris-HCl pH 7.0, 100 mM NaCl, 3% glycerol, 2 mM DTT, 2 mM EDTA; single ligand binding site model; conditions: both partners purified
T2 construct: LATS1, region with both PPxY motifs, aa 361-567; cloned into pACYC; 15N-labelled in one of the NMR titrations; source: E. coli BL21 (DE3), purified
T2 sequence (looked up): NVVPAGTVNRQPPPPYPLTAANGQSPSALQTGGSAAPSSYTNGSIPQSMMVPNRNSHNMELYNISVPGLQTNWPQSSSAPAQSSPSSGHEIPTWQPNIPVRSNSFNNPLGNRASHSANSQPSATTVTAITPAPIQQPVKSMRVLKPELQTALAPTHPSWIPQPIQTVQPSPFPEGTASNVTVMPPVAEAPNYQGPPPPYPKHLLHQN

Binder	Kd [1]	Kd [2]
B1	4.4 µM	–
B2	14 µM	–
B3	–	9.6 µM
